Test results from patent publication US20040002442A1 (Bayer, published 2004).
Blank lines part the entries; values can stand above or below the binder they belong to. Ends that are not written are not given here. * marks the point of attachment. Palmitoyl = CCCCCCCCCCCCCCCC(=O)*

Experiments:
[1] = target: T1, glucagon receptor present in the plasma membranes isolated from rat liver (rat, UniProt P30082 27-485); test: 125I-glucagon displacement, rat liver plasma membranes
T1 construct: whole, on cells
Protocol: (§1) Competitive binding of some polypeptides of the invention to rat liver plasma membranes was measured as follows. Ninety-six-well GF/C filtration plates (Millipore, Bedford, Ma.) were blocked with 0.1% PEI for at least one hour and washed twice with binding buffer consisting of 20 mM Tris, 2 mM EDTA, pH 7.5, 1 mg/ml BSA, and 1 mg/ml bacitracin. […] The plates were dried, scintillant was added to each well, and cpm per well determined using a Wallac Microbeta counter.

[2] = target: T2, GLP-1 receptor present in the plasma membranes isolated from RINm5F cells (UniProt P32301 22-463, limits assumed); test: 125I-GLP-1 displacement, RINm5F plasma membranes
T2 construct: whole, on cells
T2 sequence (looked up): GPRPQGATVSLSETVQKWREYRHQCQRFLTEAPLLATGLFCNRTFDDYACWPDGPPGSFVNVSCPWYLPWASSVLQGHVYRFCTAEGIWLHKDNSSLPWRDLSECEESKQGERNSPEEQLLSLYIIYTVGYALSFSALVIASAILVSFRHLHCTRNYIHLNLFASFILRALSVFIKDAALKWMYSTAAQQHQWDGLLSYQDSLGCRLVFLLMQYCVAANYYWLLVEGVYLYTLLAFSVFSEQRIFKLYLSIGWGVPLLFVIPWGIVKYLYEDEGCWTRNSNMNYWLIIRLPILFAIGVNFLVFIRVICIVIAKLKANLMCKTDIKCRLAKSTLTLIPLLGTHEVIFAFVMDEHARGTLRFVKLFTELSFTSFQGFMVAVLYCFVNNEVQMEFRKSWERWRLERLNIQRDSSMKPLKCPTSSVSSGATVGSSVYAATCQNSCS
Protocol: as §1, with “RINm5F cell” for “rat liver”, “0.3%” for “0.1%”

[3] = target: T2, GLP-1 receptor present in the plasma …; test: cell-based or functional assay
[4] = target: T1, glucagon receptor present in the plasma …; test: cell-based or functional assay

T1 sequence (P30082 27-485): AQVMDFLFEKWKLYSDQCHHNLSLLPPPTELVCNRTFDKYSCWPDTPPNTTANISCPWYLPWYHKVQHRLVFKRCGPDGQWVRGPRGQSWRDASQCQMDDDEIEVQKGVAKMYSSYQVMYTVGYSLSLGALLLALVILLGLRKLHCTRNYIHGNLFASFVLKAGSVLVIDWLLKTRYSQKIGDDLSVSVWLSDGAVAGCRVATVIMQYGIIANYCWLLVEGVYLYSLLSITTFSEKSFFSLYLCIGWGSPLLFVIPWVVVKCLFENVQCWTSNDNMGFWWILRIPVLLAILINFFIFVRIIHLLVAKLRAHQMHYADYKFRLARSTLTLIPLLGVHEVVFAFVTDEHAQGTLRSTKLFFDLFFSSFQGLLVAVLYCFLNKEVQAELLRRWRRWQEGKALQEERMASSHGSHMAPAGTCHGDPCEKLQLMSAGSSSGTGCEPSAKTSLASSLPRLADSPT

Binder: HSQGTFTSDYAAYLDARRAKEFIAWLVKGR-NH2 [G56]
IC50 [1]: 125 nM
IC50 [2]: 6.6 nM
% GLP1 max, cAMP SPA in RINm5F cells [3]: 115%
Relative Potency (%), cAMP SPA in RINm5F cells [3]: 37.2%
% Inhib glucagon stimulated cAMP increase (10 uM peptide, rat hepatocytes) [4]: 28.6%

Binder: HSQGTFTSDYAKYLDAARAKEFIAWLVKGR-NH2 [G57]
IC50 [1]: 178 nM
IC50 [2]: 14.7 nM
% GLP1 max, cAMP SPA in RINm5F cells [3]: 132%
Relative Potency (%), cAMP SPA in RINm5F cells [3]: 18.3%
% Inhib glucagon stimulated cAMP increase (10 uM peptide, rat hepatocytes) [4]: 18.4%

B1: G87 (peptide)
peptide: HSQGTFTSDYAKYLDARRAK(Palmitoyl)EFIAWLVKGR-NH2
modifications: N-terminus assumed
SMILES: CCCCCCCCCCCCCCCC(=O)NCCCC[C@H](NC(=O)[C@H](C)NC(=O)[C@H](CCCNC(=N)N)NC(=O)[C@H](CCCNC(=N)N)NC(=O)[C@H](C)NC(=O)[C@H](CC(=O)O)NC(=O)[C@H](CC(C)C)NC(=O)[C@H](Cc1ccc(O)cc1)NC(=O)[C@H](CCCCN)NC(=O)[C@H](C)NC(=O)[C@H](Cc1ccc(O)cc1)NC(=O)[C@H](CC(=O)O)NC(=O)[C@H](CO)NC(=O)[C@@H](NC(=O)[C@H](Cc1ccccc1)NC(=O)[C@@H](NC(=O)CNC(=O)[C@H](CCC(N)=O)NC(=O)[C@H](CO)NC(=O)[C@@H](N)Cc1c[nH]cn1)[C@@H](C)O)[C@@H](C)O)C(=O)N[C@@H](CCC(=O)O)C(=O)N[C@@H](Cc1ccccc1)C(=O)N[C@H](C(=O)N[C@@H](C)C(=O)N[C@@H](Cc1c[nH]c2ccccc12)C(=O)N[C@@H](CC(C)C)C(=O)N[C@H](C(=O)N[C@@H](CCCCN)C(=O)NCC(=O)N[C@@H](CCCNC(=N)N)C(N)=O)C(C)C)[C@@H](C)CC
IC50 [1]: 620 nM
IC50 [2]: 98.6 nM
% GLP1 max, cAMP SPA in RINm5F cells [3]: 100%
Relative Potency (%), cAMP SPA in RINm5F cells [3]: 6.1%
% Inhib glucagon stimulated cAMP increase (10 uM peptide, rat hepatocytes) [4]: 59%

Continued, values first:

IC50 [1]: 139 nM
IC50 [2]: 9.8 nM
% GLP1 max, cAMP SPA in RINm5F cells [3]: 116%
Relative Potency (%), cAMP SPA in RINm5F cells [3]: 18.6%
% Inhib glucagon stimulated cAMP increase (10 uM peptide, rat hepatocytes) [4]: 32.1%
Binder: HSQGTFTSDYARYLDARRAKEFIAWLVKGR-NH2 [G55]

IC50 [1]: 16.1 nM
IC50 [2]: 1.5 nM
% GLP1 max, cAMP SPA in RINm5F cells [3]: 95.8%
Relative Potency (%), cAMP SPA in RINm5F cells [3]: 64.5%
% Inhib glucagon stimulated cAMP increase (10 uM peptide, rat hepatocytes) [4]: 27.9%
Binder: HSQGTFTSDYARYLDARRAREFIAWLVRGRGK [G85]
